Legend:
[1] = biological target: Recombinant S1 protein of MERS-CoV (MERS-CoV) (UniProt K9N5Q8)
[2] = biological target: Recombinant S1 protein of SARS-CoV-2 (SARS-CoV-2) (UniProt P0DTC2)

Substance	sensitivity of the test strip [1] [nM]	sensitivity of the test strip [2] [nM]
6×His tag-AVI tag-DPP4 fusion protein, biotinylated and labeled with color latex (L-SB-DPP4) (receptor; other documents disagree on this pair)	10	
ACE2-AVI tag-6×His tag fusion protein, biotinylated and labeled with color latex (L-SB-ACE2) (receptor; other documents disagree on this pair)		10

— US20230212589A1
